B1: DNA polymerase eta (Saccharomyces cerevisiae), Q04049 (parent)
chain: MSKFTWKELIQLGSPSKAYESSLACIAHIDMNAFFAQVEQMRCGLSKEDPVVCVQWNSIIAVSYAARKYGISRMDTIQEALKKCSNLIPIHTAVFKKGEDFWQYHDGCGSWVQDPAKQISVEDHKVSLEPYRRESRKALKIFKSACDLVERASIDEVFLDLGRICFNMLMFDNEYELTGDLKLKDALSNIREAFIGGNYDINSHLPLIPEKIKSLKFEGDVFNPEGRDLITDWDDVILALGSQVCKGIRDSIKDILGYTTSCGLSSTKNVCKLASNYKKPDAQTIVKNDCLLDFLDCGKFEITSFWTLGGVLGKELIDVLDLPHENSIKHIRETWPDNAGQLKEFLDAKVKQSDYDRSTSNIDPLKTADLAEKLFKLSRGRYGLPLSSRPVVKSMMSNKNLRGKSCNSIVDCISWLEVFCAELTSRIQDLEQEYNKIVIPRTVSISLKTKSYEVYRKSGPVAYKGINFQSHELLKVGIKFVTDLDIKGKNKSYYPLTKLSMTITNFDIIDLQKTVVDMFGNQVHTFKSSAGKEDEEKTTSSKADEKTPKLECCKYQVTFTDQKALQEHADYHLALKLSEGLNGAEESSKNLSFGEKRLLFSRKRPNSQHTATPQKKQVTSSKNILSFFTRKK

Variants of: B1
Conditions: with pcna_yeast POL30, P15873
Chain of pcna_yeast POL30, P15873 (P15873 whole entry): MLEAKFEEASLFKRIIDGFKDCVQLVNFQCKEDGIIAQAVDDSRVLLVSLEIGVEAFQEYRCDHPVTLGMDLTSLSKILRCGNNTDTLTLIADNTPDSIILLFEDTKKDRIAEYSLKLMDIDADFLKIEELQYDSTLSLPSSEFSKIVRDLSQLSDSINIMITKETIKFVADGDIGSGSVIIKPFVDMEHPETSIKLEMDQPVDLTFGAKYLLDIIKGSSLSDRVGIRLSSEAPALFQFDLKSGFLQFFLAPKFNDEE

Row | Variant | effect of a mutation on the interaction
1 | F627A;F628A | decreasing interaction
